Test results published in patent US20230174652A1 (Regeneron, published 2023).

Experiments:
[1] = molecular target: T1, CD3 molecules on human T cells (human, UniProt P07766 23-207); experiment: cell-based or functional assay
[2] = molecular target: T1, CD3 molecules on human T cells; experiment: cell-based or functional assay; remark: listed apart in the source

T1 sequence (P07766 23-207): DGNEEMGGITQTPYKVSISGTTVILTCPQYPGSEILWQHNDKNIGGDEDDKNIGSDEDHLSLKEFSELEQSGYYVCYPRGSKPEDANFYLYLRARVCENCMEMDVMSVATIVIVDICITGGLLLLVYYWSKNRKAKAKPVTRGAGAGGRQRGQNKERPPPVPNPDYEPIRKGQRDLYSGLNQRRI

B1: REGN1979 (bispecific antibody, human IgG4 S228P, kappa)
heavy 1: EVQLVESGGGLVQPGRSLRLSCVASGFTFNDYAMHWVRQAPGKGLEWVSVISWNSDSIGYADSVKGRFTISRDNAKNSLYLQMHSLRAEDTALYYCAKDNHYGSGSYYYYQYGMDVWGQGTTVTVSSASTKGPSVFPLAPCSRSTSESTAALGCLVKDYFPEPVTVSWNSGALTSGVHTFPAVLQSSGLYSLSSVVTVPSSSLGTKTYTCNVDHKPSNTKVDKRVESKYGPPCPPCPAPPVAGPSVFLFPPKPKDTLMISRTPEVTCVVVDVSQEDPEVQFNWYVDGVEVHNAKTKPREEQFNSTYRVVSVLTVLHQDWLNGKEYKCKVSNKGLPSSIEKTISKAKGQPREPQVYTLPPSQEEMTKNQVSLTCLVKGFYPSDIAVEWESNGQPENNYKTTPPVLDSDGSFFLYSRLTVDKSRWQEGNVFSCSVMHEALHNHYTQKSLSLSLGK
heavy 2: EVQLVESGGGLVQPGRSLRLSCAASGFTFDDYTMHWVRQAPGKGLEWVSGISWNSGSIGYADSVKGRFTISRDNAKKSLYLQMNSLRAEDTALYYCAKDNSGYGHYYYGMDVWGQGTTVTVASASTKGPSVFPLAPCSRSTSESTAALGCLVKDYFPEPVTVSWNSGALTSGVHTFPAVLQSSGLYSLSSVVTVPSSSLGTKTYTCNVDHKPSNTKVDKRVESKYGPPCPPCPAPPVAGPSVFLFPPKPKDTLMISRTPEVTCVVVDVSQEDPEVQFNWYVDGVEVHNAKTKPREEQFNSTYRVVSVLTVLHQDWLNGKEYKCKVSNKGLPSSIEKTISKAKGQPREPQVYTLPPSQEEMTKNQVSLTCLVKGFYPSDIAVEWESNGQPENNYKTTPPVLDSDGSFFLYSRLTVDKSRWQEGNVFSCSVMHEALHNRFTQKSLSLSLGK
light: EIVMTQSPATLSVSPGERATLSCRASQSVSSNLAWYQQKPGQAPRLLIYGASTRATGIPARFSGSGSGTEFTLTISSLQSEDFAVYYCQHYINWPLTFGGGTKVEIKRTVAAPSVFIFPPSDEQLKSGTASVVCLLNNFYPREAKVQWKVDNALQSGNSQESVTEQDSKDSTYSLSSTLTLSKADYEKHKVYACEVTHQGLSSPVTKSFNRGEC
CD4+ T cell activation (% CD25+), Fold Change (EC50), fixed REGN5837 0 (reference) [1]: 1 fold
CD4+ T cell activation (% CD25+), REGN1979 EC50 (M), fixed REGN5837 0 [1]: 9.17e-13 M
CD4+ T cell activation (% CD25+), REGN1979 EC50 (M), fixed REGN5837 1.00 × 10^-7 [1]: 1.16e-13 M
CD4+ T cell activation (% CD25+), REGN1979 EC50 (M), fixed REGN5837 1.67 × 10^-8 [1]: 8.7e-14 M
CD4+ T cell activation (% CD25+), REGN1979 EC50 (M), fixed REGN5837 4.63 × 10^-10 [1]: 1.46e-13 M
CD4+ T cell activation (% CD25+), REGN1979 EC50 (M), fixed REGN5837 7.72 × 10^-11 [1]: 2.08e-13 M
CD4+ T-cell Proliferation, Fold Change (EC50), fixed REGN5837 0 (reference) [1]: 1 fold
CD4+ T-cell Proliferation, REGN1979 EC50 (M), fixed REGN5837 0 [1]: 1.63e-11 M
CD4+ T-cell Proliferation, REGN1979 EC50 (M), fixed REGN5837 1.00 × 10^-7 [1]: 8.42e-13 M
CD4+ T-cell Proliferation, REGN1979 EC50 (M), fixed REGN5837 1.67 × 10^-8 [1]: 9.31e-13 M
CD4+ T-cell Proliferation, REGN1979 EC50 (M), fixed REGN5837 2.78 × 10^-9 [1]: 4.25e-13 M
CD4+ T-cell Proliferation, REGN1979 EC50 (M), fixed REGN5837 4.63 × 10^-10 [1]: 1.25e-12 M
CD4+ T-cell Proliferation, REGN1979 EC50 (M), fixed REGN5837 7.72 × 10^-11 [1]: 2.36e-12 M
CD8+ T cell activation (% CD25+), Fold Change (EC50), fixed REGN5837 0 (reference) [1]: 1 fold
CD8+ T cell activation (% CD25+), REGN1979 EC50 (M), fixed REGN5837 0 [1]: 3.38e-12 M
CD8+ T cell activation (% CD25+), REGN1979 EC50 (M), fixed REGN5837 1.00 × 10^-7 [1]: 6.32e-13 M
CD8+ T cell activation (% CD25+), REGN1979 EC50 (M), fixed REGN5837 1.67 × 10^-8 [1]: 5.88e-13 M
CD8+ T cell activation (% CD25+), REGN1979 EC50 (M), fixed REGN5837 2.78 × 10^-9 [1]: 2.68e-13 M
CD8+ T cell activation (% CD25+), REGN1979 EC50 (M), fixed REGN5837 4.63 × 10^-10 [1]: 9.01e-13 M
CD8+ T cell activation (% CD25+), REGN1979 EC50 (M), fixed REGN5837 7.72 × 10^-11 [1]: 1.64e-12 M
CD8+ T-cell Proliferation, Fold Change (EC50), fixed REGN5837 0 (reference) [1]: 1 fold
CD8+ T-cell Proliferation, REGN1979 EC50 (M), fixed REGN5837 0 [1]: 1.97e-11 M
CD8+ T-cell Proliferation, REGN1979 EC50 (M), fixed REGN5837 1.00 × 10^-7 [1]: 1.55e-12 M
CD8+ T-cell Proliferation, REGN1979 EC50 (M), fixed REGN5837 1.67 × 10^-8 [1]: 8.31e-13 M
CD8+ T-cell Proliferation, REGN1979 EC50 (M), fixed REGN5837 2.78 × 10^-9 [1]: 7.09e-13 M
CD8+ T-cell Proliferation, REGN1979 EC50 (M), fixed REGN5837 4.63 × 10^-10 [1]: 3.43e-12 M
CD8+ T-cell Proliferation, REGN1979 EC50 (M), fixed REGN5837 7.72 × 10^-11 [1]: 8.36e-12 M
WSU-DLCL2 Cell Killing, Fold Change (EC50), fixed REGN5837 0 (reference) [1]: 1 fold
WSU-DLCL2 Cell Killing, REGN1979 EC50 (M), fixed REGN5837 0 [1]: 2.89e-12 M
WSU-DLCL2 Cell Killing, REGN1979 EC50 (M), fixed REGN5837 1.00 × 10^-7 [1]: 8.53e-14 M
WSU-DLCL2 Cell Killing, REGN1979 EC50 (M), fixed REGN5837 1.67 × 10^-8 [1]: 1.85e-13 M
WSU-DLCL2 Cell Killing, REGN1979 EC50 (M), fixed REGN5837 2.78 × 10^-9 [1]: 3.98e-13 M
WSU-DLCL2 Cell Killing, REGN1979 EC50 (M), fixed REGN5837 4.63 × 10^-10 [1]: 3.46e-13 M
WSU-DLCL2 Cell Killing, REGN1979 EC50 (M), fixed REGN5837 7.72 × 10^-11 [1]: 8.37e-13 M
IFN-gamma release, Fold change (CKR), fixed REGN5837 0 (reference) [2]: 1 fold
IFN-gamma release, REGN1979 EC50 (M), fixed REGN5837 0 [2]: 1.82e-10 M
IFN-gamma release, REGN1979 EC50 (M), fixed REGN5837 1.0 X 10^-7 [2]: 1.17e-10 M
IFN-gamma release, REGN1979 EC50 (M), fixed REGN5837 1.67 X 10^-8 [2]: 5.34e-11 M
IFN-gamma release, REGN1979 EC50 (M), fixed REGN5837 2.78 X 10^-9 [2]: 2e-10 M
IFN-gamma release, REGN1979 EC50 (M), fixed REGN5837 4.63 X 10^-10 [2]: 6.72e-11 M
IFN-gamma release, REGN1979 EC50 (M), fixed REGN5837 7.72 X 10^-11 [2]: 6.57e-11 M
IL-2 release, Fold change (CKR), fixed REGN5837 0 (reference) [2]: 1 fold
IL-2 release, REGN1979 EC50 (M), fixed REGN5837 0 [2]: 1.25e-10 M
IL-2 release, REGN1979 EC50 (M), fixed REGN5837 1.0 X 10^-7 [2]: 2.81e-11 M
IL-2 release, REGN1979 EC50 (M), fixed REGN5837 1.67 X 10^-8 [2]: 1.96e-11 M
IL-2 release, REGN1979 EC50 (M), fixed REGN5837 2.78 X 10^-9 [2]: 5.18e-12 M
IL-2 release, REGN1979 EC50 (M), fixed REGN5837 4.63 X 10^-10 [2]: 5.36e-11 M
IL-2 release, REGN1979 EC50 (M), fixed REGN5837 7.72 X 10^-11 [2]: 3.89e-08 M
IL-4 release, Fold change (CKR), fixed REGN5837 0 (reference) [2]: 1 fold
IL-4 release, REGN1979 EC50 (M), fixed REGN5837 0 [2]: 9.99e-10 M
IL-4 release, REGN1979 EC50 (M), fixed REGN5837 1.0 X 10^-7 [2]: 1.66e-11 M
IL-4 release, REGN1979 EC50 (M), fixed REGN5837 1.67 X 10^-8 [2]: 1.53e-11 M
IL-4 release, REGN1979 EC50 (M), fixed REGN5837 2.78 X 10^-9 [2]: 1.28e-11 M
IL-4 release, REGN1979 EC50 (M), fixed REGN5837 4.63 X 10^-10 [2]: 1.89e-11 M
IL-4 release, REGN1979 EC50 (M), fixed REGN5837 7.72 X 10^-11 [2]: 3.77e-10 M
IL-6 release, Fold change (CKR), fixed REGN5837 0 (reference) [2]: 1 fold
IL-6 release, REGN1979 EC50 (M), fixed REGN5837 0 [2]: 7.42e-11 M
IL-6 release, REGN1979 EC50 (M), fixed REGN5837 1.0 X 10^-7 [2]: 5.13e-11 M
IL-6 release, REGN1979 EC50 (M), fixed REGN5837 1.67 X 10^-8 [2]: 7.89e-12 M
IL-6 release, REGN1979 EC50 (M), fixed REGN5837 2.78 X 10^-9 [2]: 2.68e-11 M
IL-6 release, REGN1979 EC50 (M), fixed REGN5837 4.63 X 10^-10 [2]: 1.45e-12 M
IL-6 release, REGN1979 EC50 (M), fixed REGN5837 7.72 X 10^-11 [2]: 1.61e-10 M
IL-10 release, Fold change (CKR), fixed REGN5837 0 (reference) [2]: 1 fold
IL-10 release, REGN1979 EC50 (M), fixed REGN5837 0 [2]: 9.95e-11 M
IL-10 release, REGN1979 EC50 (M), fixed REGN5837 1.0 X 10^-7 [2]: 3.54e-11 M
IL-10 release, REGN1979 EC50 (M), fixed REGN5837 1.67 X 10^-8 [2]: 1.04e-10 M
IL-10 release, REGN1979 EC50 (M), fixed REGN5837 2.78 X 10^-9 [2]: 2.43e-10 M
IL-10 release, REGN1979 EC50 (M), fixed REGN5837 4.63 X 10^-10 [2]: 5.29e-11 M
IL-10 release, REGN1979 EC50 (M), fixed REGN5837 7.72 X 10^-11 [2]: 3.34e-11 M
IL-17A release, Fold change (CKR), fixed REGN5837 0 (reference) [2]: 1 fold
IL-17A release, REGN1979 EC50 (M), fixed REGN5837 0 [2]: 2.5e-10 M
IL-17A release, REGN1979 EC50 (M), fixed REGN5837 1.0 X 10^-7 [2]: 3.22e-10 M
IL-17A release, REGN1979 EC50 (M), fixed REGN5837 1.67 X 10^-8 [2]: 1.11e-10 M
IL-17A release, REGN1979 EC50 (M), fixed REGN5837 2.78 X 10^-9 [2]: 7.6e-11 M
IL-17A release, REGN1979 EC50 (M), fixed REGN5837 4.63 X 10^-10 [2]: 4.63e-10 M
IL-17A release, REGN1979 EC50 (M), fixed REGN5837 7.72 X 10^-11 [2]: 1.86e-10 M
TNF alpha release, Fold change (CKR), fixed REGN5837 0 (reference) [2]: 1 fold
TNF alpha release, REGN1979 EC50 (M), fixed REGN5837 0 [2]: 2.43e-10 M
TNF alpha release, REGN1979 EC50 (M), fixed REGN5837 1.0 X 10^-7 [2]: 5.03e-12 M
TNF alpha release, REGN1979 EC50 (M), fixed REGN5837 1.67 X 10^-8 [2]: 8.69e-13 M
TNF alpha release, REGN1979 EC50 (M), fixed REGN5837 2.78 X 10^-9 [2]: 3.45e-12 M
TNF alpha release, REGN1979 EC50 (M), fixed REGN5837 7.72 X 10^-11 [2]: 1.62e-10 M
